Experimental data published in patent US20130078234A1 (Daiichi Sankyo, published 2013).
Residue numbers refer to the chain shown, from its start.

T1: extracellular domain polypeptide of a recombinant B7-H3 variant 2 antigen (R&D Systems, Inc., #2318-B3-050/CF) (human, UniProt Q5ZPR3 29-466)
T1 construct: Bought recombinant protein; also called recombinant B7-H3 antigen; B7-H3 antigen
T1 sequence: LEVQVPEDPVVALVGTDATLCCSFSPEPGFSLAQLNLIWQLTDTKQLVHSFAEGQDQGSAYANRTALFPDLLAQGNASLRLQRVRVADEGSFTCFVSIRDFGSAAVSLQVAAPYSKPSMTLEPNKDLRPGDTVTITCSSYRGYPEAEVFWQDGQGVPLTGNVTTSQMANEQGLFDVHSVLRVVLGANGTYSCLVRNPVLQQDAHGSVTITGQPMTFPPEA

B1: chimeric antibody M30 (antibody, human IgG1, kappa)
heavy: not shown
light: QIVLSQSPTILSASPGEKVTMTCRASSRLIYMHWYQQKPGSSPKPWIYATSNLASGVPARFSGSGSGTSYSLTISRVEAEDAATYYCQQWNSNPPTFGTGTKLELKRTVAAPSVFIFPPSDEQLKSGTASVVCLLNNFYPREAKVQWKVDNALQSGNSQESVTEQDSKDSTYSLSSTLTLSKADYEKHKVYACEVTHQGLSSPVTKSFNRGEC
notes: Mouse M30 variable regions on human IgG1 / human kappa constant regions; also called cM30; cM30 antibody
B2: humanized M30 antibody M30-H1-L1 (antibody, human IgG1, kappa, V domains shown)
VH: QVQLVQSGAEVKKPGSSVKVSCKASGYTFTNYVMHWVRQAPGQGLEWMGYINPYNDDVKYNEKFKGRVTITADESTSTAYMELSSLRSEDTAVYYCARWGYYGSPLYYFDYWGQGTLVTVSS
VL: EIVLTQSPATLSLSPGERATLSCRASSRLIYMHWYQQKPGQAPRLLIYATSNLASGIPARFSGSGSGTDFTLTISRLEPEDFAVYYCQQWNSNPPTFGQGTKVEIKR
notes: Human IgG1/kappa
B3: humanized M30 antibody M30-H1-L2 (antibody, human IgG1, kappa, V domains shown)
VH: B2 VH
VL: B2 VL with L46W, F70Y
notes: Human IgG1/kappa
B4: humanized M30 antibody M30-H1-L3 (antibody, human IgG1, kappa, V domains shown)
VH: B2 VH
VL: B2 VL with E1Q, T5S, S22T, Q41S, R44K, L46W, D69S, F70Y
notes: Human IgG1/kappa
B5: humanized M30 antibody M30-H1-L4 (antibody, human IgG1, kappa, V domains shown)
VH: B2 VH
VL: B2 VL with L45P, R76S
notes: Human IgG1/kappa; also called M30-H1-L4 antibody
B6: humanized M30 antibody M30-H1-L5 (antibody, human IgG1, kappa, V domains shown)
VH: B2 VH
VL: B2 VL with E1Q, T5S, S22T, Q41S, R44K, L45P, L46W, D69S, F70Y
notes: Human IgG1/kappa
B7: humanized M30 antibody M30-H1-L6 (antibody, human IgG1, kappa, V domains shown)
VH: B2 VH
VL: B2 VL with L45P
notes: Human IgG1/kappa
B8: humanized M30 antibody M30-H1-L7 (antibody, human IgG1, kappa, V domains shown)
VH: B2 VH
VL: B2 VL with L45P, F70Y
notes: Human IgG1/kappa
B9: humanized M30 antibody M30-H4-L1 (antibody, human IgG1, kappa, V domains shown)
VH: B2 VH with Q1E, R38K, M48I, R67K, V68A, I70Q, A72S, E74K
VL: B2 VL
notes: Human IgG1/kappa
B10: humanized M30 antibody M30-H4-L2 (antibody, human IgG1, kappa, V domains shown)
VH: B2 VH with Q1E, R38K, M48I, R67K, V68A, I70Q, A72S, E74K
VL: B2 VL with L46W, F70Y
notes: Human IgG1/kappa
B11: humanized M30 antibody M30-H4-L4 (antibody, human IgG1, kappa, V domains shown)
VH: B2 VH with Q1E, R38K, M48I, R67K, V68A, I70Q, A72S, E74K
VL: B2 VL with L45P, R76S
notes: Human IgG1/kappa
B12: humanized M30 antibody M30-H4-L3 (antibody, human IgG1, kappa, V domains shown)
VH: B2 VH with Q1E, R38K, M48I, R67K, V68A, I70Q, A72S, E74K
VL: B2 VL with E1Q, T5S, S22T, Q41S, R44K, L46W, D69S, F70Y
notes: Human IgG1/kappa

Tests used:
[1] = target: T1, extracellular domain polypeptide of a …; assay: SPR (Biacore), antibody captured on anti-human IgG, B7-H3 variant 2 extracellular domain as analyte; positive control
Experimental: (§1) The binding property of the humanized M30 antibody to human B7-H3 which is an antigen was measured by a surface plasmon resonance (SPR) device (Biacore, Inc.). According to a common procedure, an anti-human IgG antibody was immobilized on a sensor chip, and then, each of the purified samples of the humanized M30 antibodies obtained in the above 10)-4 was bound thereto. Thereafter, an extracellular domain polypeptide of the B7-H3 variant 2 antigen (manufactured by R&D Systems, Inc., #2318-B3-050/CF) was added thereto at different concentrations, and the amount of the antigen bound to the antibody in a running buffer (phosphate buffer, 0.05% SP20) was measured over time. The measured amount was analyzed with a dedicated software (BIAevaluation) and a dissociation constant (Kd [M]) was calculated. The measurement was performed using the cM30 antibody as a positive control for each measurement operation.

[2] = target: T1, extracellular domain polypeptide of a …; assay: SPR, antibody captured on immobilized anti-human IgG, B7-H3 variant 2 extracellular domain as analyte; cM30 chimeric antibody, captured on anti-human IgG; experiment 8)-1
Experimental: The affinity between the M30 antibody or the cM30 antibody and the B7-H3 antigen was measured by a surface plasmon resonance (SPR) device (GE Healthcare Corporation). According to a common procedure, an anti-mouse IgG or an anti-human IgG antibody was immobilized on a sensor chip, and then, the M30 antibody sample or the cM30 antibody was bound thereto. Thereafter, an extracellular domain polypeptide of a recombinant B7-H3 variant 2 antigen (manufactured by R&D Systems, Inc., #2318-B3-050/CF) was added thereto at different concentrations, and the amount of the antigen bound to the antibody in a running buffer (phosphate buffer, 0.05% SP20) was measured over time. The measured amount was analyzed with a dedicated software (BIAevaluation Version 4.1, GE Healthcare Corporation) and a dissociation constant was calculated.

[3] = target: T1, extracellular domain polypeptide of a …; assay: competition ELISA on plate-coated B7-H3 variant 2 extracellular domain polypeptide; competitor biotinylated M30 (bM30, 5 ug/ml), detected with streptavidin-HRP, OD 450 nm
Experimental: Each of the extracellular domain polypeptide of the B7-H3 variant 1 (manufactured by R&D Systems, Inc., #1949-B3-050/CF) and the extracellular domain polypeptide of the B7-H3 variant (manufactured by R&D Systems, Inc., #2318-B3-050/CF) was diluted to 0.5 μg/ml with a coating buffer and the resulting solution was dispensed at 100 μL/well in an immunoplate (manufactured by Nunc, Inc., #442404). Then, the plate was left to stand overnight at 4° C., whereby the protein was adsorbed to the plate. On the next day, an assay diluent was dispensed at 200 μL/well, and the plate was left to stand at room temperature for 4 hours.

[4] = target: T1, extracellular domain polypeptide of a …; assay: SPR (Biacore), antibody captured on anti-human IgG, B7-H3 variant 2 extracellular domain as analyte
Experimental: as §1

Binder	Kd [4]	also measured
B1		Kd [1]: 0.73 nM; Kd [2]: 3.43 nM; IC50 (read off the curve) [3]: ~0.4 µg/mL
B2	87 nM	
B3	100 nM	
B4	100 nM	
B5	16 nM	IC50 (read off the curve) [3]: ~0.5 µg/mL
B6	1.9 nM	
B7	3.4 nM	
B8	2.7 nM	
B9	130 nM	
B10	140 nM	
B11	12 nM	
B12	160 nM	
